Test results: US9180187B2, “Medicament for treating and/or preventing cancer” (TORAY INDUSTRIES, INC., priority 2010, dated 2015)

Test system: MCF-7 human breast cancer cell line
Test: In vivo combination therapy in tumor-bearing nude mice transplanted with MCF-7
Settings: experimental section 2 (anti-CAPRIN-1 antibody = #9, 5 mg/kg i.p.), day 26, mouse PBMC given to all groups
Protocol: IgG2b (R&D systems, catalog No. MAB11291)) were administered in combination, a group to which an antitumor agent and anti-CAPRIN-1 monoclonal antibody were administered in combination, and a group to which control (PBS(−) was administered. In addition, mouse PBMC was administered to all the administration groups. […] PBMC separated from Balb/c mouse spleen was intravenously administered to each mouse at 1×10^7 cells/0.2 mL (RPMI1640) on days 0, 8, and 15 after the start of the experiment. […] PBMC separated from Balb/c mouse spleen was intravenously administered to each mouse at 1×10^7 cells/0.2 mL (RPMI1640) on days 0, 8, and 15 after the start of the experiment. Paclitaxel was intraperitoneally administered to each of 5 tumor-bearing mice at 15 mg/kg/shot on days 0 and 3 after the start of the experiment. PBMC separated from Balb/c mouse spleen was intravenously administered to each mouse at 1×10^7 cells/0.2 mL (RPMI1640) on days 0, 8, and 15 after the start of the experiment. Docetaxel was intraperitoneally administered to each of 5 tumor-bearing mice at 10 mg/kg/shot on days 0 and 3 after the start of the experiment. PBMC separated from Balb/c mouse spleen was intravenously administered to each mouse at 1×10^7 cells/0.2 mL (RPMI1640) on days 0, 8, and 15 after the start of the experiment. […]

B1: monoclonal antibody #9: mouse anti-CAPRIN-1 monoclonal antibody; heavy chain variable region SEQ ID NO: 103, light chain variable region SEQ ID NO: 107 (antibody, listed as Mus musculus, V domains shown)
VH: PRASLGVSETLLCTSGFTFTDYYMSWVRQPPGKALEWLGFIRNKANGYTTEYSASVKGRFTISRDNSQSILYLQMNTLRAEDSATYYCARANWAFDYWGQGTTVTVSSK
VL: SGDRVSLSCRASQSISNYLHWYQQKSHESPRLLIKYASQSISGIPSRFSGSGSGTDFTLSINSVETEDFGMYFCQQSNSWPYTFGGGTKLEIKQ
With B1 as the molecule, how does the “tumor volume relative to PBS(−) control group designated at 100%” value read?
The value was “about 45%”.
